Reference: paper PMC3571956

Key:
[1] = target: HEV ORF3 and GFP1 fusion protein (genotype 1) (hepatitis E virus genotype 1 (W2-1 strain)); test: co-IP; Matchmaker Chemiluminescent Co-IP System; 293FT cells co-transfected with pAcGFP1-ORF3 and pProLabel-prey, lysed at 48 h; precipitated with anti-HEV ORF3 polyclonal antibody; ProLabel chemiluminescence (RLU) read on the beads; three independent tests
[2] = target: HEV ORF3 and GFP1 fusion protein (genotype 1) (hepatitis E virus genotype 1 (W2-1 strain)); test: co-IP; Matchmaker Chemiluminescent Co-IP System; 293FT cells co-transfected with pAcGFP1-ORF3 and pProLabel-prey, lysed at 48 h; precipitated with anti-AcGFP (GFP1) polyclonal antibody; ProLabel chemiluminescence (RLU) read on the beads

B1: Hemopexin, ProLabel fusion (natural protein)
chain: TPLPPTSAHGNVAEGETKPDPDVTERCSDGWSFDATTLDDNGTMLFFKGEFVWKSHKWDRELISERWKNFPSPVDAAFRQGHNSVFLIKGDKVWVYPPEKKEKGYPKLLQDEFPGIPSPLDAAVECHRGECQAEGVLFFQGDREWFWDLATGTMKERSWPAVGNCSSALRWLGRYYCFQGNQFLRFDPVRGEVPPRYPRDVRDYFMPCPGRGHGHRNGTGHGNSTHHGPEYMRCSPHLVLSALTSDNHGATYAFSGTHYWRLDTSRDGWHSWPIAHQWPQGPSAVDAAFSWEEKLYLVQGTQVYVFLTKGGYTLVSGYPKRLEKEVGTPHGIILDSVDAAFICPGSSRLHIMAGRRLWWLDLKSGAQATWTELPWPHEKVDGALCMEKSLGPNSCSANGPGLYLIHGPNLYCYSDVEKLNAAKALPQPQNVTSLLGCTH
chemiluminescent intensity [1]: 1140 RLU
chemiluminescent intensity [2]: 614 RLU
